Assay results taken from the supplement of paper PMC9112550, “Optimization of the antimicrobial peptide Bac7 by deep mutational scanning” (BMC Biology, 2022).

What follows are sequences tested on Escherichia coli TOP10 (assay: shrunken log2 fold change of peptide-encoding DNA abundance (4.5 h post-induction vs induction); higher = less antimicrobial activity (less host growth inhibition)). Conditions: time post-induction: 4.5 h; library: site-saturation at positions 5, 18, 19, 20.
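Further: peptides expressed intracellularly from a pBAD plasmid library in pooled LB shake-flask culture, induced with 0.3% L-arabinose, DNA abundance read by NGS, three biological replicates, DESeq2 with apeglm shrinkage.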

Sequence	shrunken log2 fold change
RRIRARPPRLPRPRPRPKFYPRP	-0.214
RRIRARPPRLPRPRPRPKHHPRP	-0.00948
RRIRARPPRLPRPRPRPKISPRP	0.173
RRIRARPPRLPRPRPRPKKNPRP	0.441
RRIRARPPRLPRPRPRPKKRPRP	0.626
RRIRARPPRLPRPRPRPKLEPRP	0.623
RRIRARPPRLPRPRPRPKLRPRP	0.178
RRIRARPPRLPRPRPRPKMCPRP	-0.0542
RRIRARPPRLPRPRPRPKPEPRP	0.223
RRIRARPPRLPRPRPRPKQMPRP	0.439
RRIRARPPRLPRPRPRPKRAPRP	0.65
RRIRARPPRLPRPRPRPKRSPRP	0.427
RRIRARPPRLPRPRPRPKSIPRP	-0.078
RRIRARPPRLPRPRPRPKSKPRP	0.257
RRIRARPPRLPRPRPRPKSQPRP	0.286
RRIRARPPRLPRPRPRPKTDPRP	0.876
RRIRARPPRLPRPRPRPKTSPRP	0.331
RRIRARPPRLPRPRPRPKVNPRP	-0.109
RRIRARPPRLPRPRPRPKWHPRP	0.235
RRIRARPPRLPRPRPRPKYPPRP	-0.178
RRIRARPPRLPRPRPRPLDGPRP	0.425
RRIRARPPRLPRPRPRPLECPRP	0.184
RRIRARPPRLPRPRPRPLEEPRP	1.04
RRIRARPPRLPRPRPRPLGKPRP	0.237
RRIRARPPRLPRPRPRPLHIPRP	-0.559

Sequence	shrunken log2 fold change
RRIRARPPRLPRPRPRPLHRPRP	0.281
RRIRARPPRLPRPRPRPLIFPRP	0.000397
RRIRARPPRLPRPRPRPLIGPRP	0.107
RRIRARPPRLPRPRPRPLISPRP	-0.0384
RRIRARPPRLPRPRPRPLKGPRP	0.052
RRIRARPPRLPRPRPRPLLSPRP	0.367
RRIRARPPRLPRPRPRPLPQPRP	0.64
RRIRARPPRLPRPRPRPLQDPRP	0.25
RRIRARPPRLPRPRPRPLQRPRP	0.58
RRIRARPPRLPRPRPRPLRMPRP	0.655
RRIRARPPRLPRPRPRPLSCPRP	0.214
RRIRARPPRLPRPRPRPLSDPRP	0.248
RRIRARPPRLPRPRPRPLSSPRP	0.2
RRIRARPPRLPRPRPRPLTSPRP	0.209
RRIRARPPRLPRPRPRPLTWPRP	0.272
RRIRARPPRLPRPRPRPLVYPRP	-0.372
RRIRARPPRLPRPRPRPLWDPRP	0.022
RRIRARPPRLPRPRPRPLWTPRP	0.115
RRIRARPPRLPRPRPRPLWVPRP	0.959
RRIRARPPRLPRPRPRPLYDPRP	-0.124
RRIRARPPRLPRPRPRPLYMPRP	-0.48
RRIRARPPRLPRPRPRPLYVPRP	-0.0921
RRIRARPPRLPRPRPRPMAAPRP	3.13
RRIRARPPRLPRPRPRPMANPRP	0.285
RRIRARPPRLPRPRPRPMATPRP	0.601

Sequence	shrunken log2 fold change
RRIRARPPRLPRPRPRPMCFPRP	0.18
RRIRARPPRLPRPRPRPMCPPRP	0.0408
RRIRARPPRLPRPRPRPMEQPRP	0.0309
RRIRARPPRLPRPRPRPMFTPRP	-0.0981
RRIRARPPRLPRPRPRPMGGPRP	0.0776
RRIRARPPRLPRPRPRPMHAPRP	0.409
RRIRARPPRLPRPRPRPMHGPRP	0.311
RRIRARPPRLPRPRPRPMHHPRP	0.112
RRIRARPPRLPRPRPRPMIHPRP	-0.119
RRIRARPPRLPRPRPRPMLRPRP	0.155
RRIRARPPRLPRPRPRPMLYPRP	0.249
RRIRARPPRLPRPRPRPMMMPRP	0.246
RRIRARPPRLPRPRPRPMNGPRP	-0.0023
RRIRARPPRLPRPRPRPMNMPRP	-0.0785
RRIRARPPRLPRPRPRPMNPPRP	-0.0638
RRIRARPPRLPRPRPRPMNWPRP	0.351
RRIRARPPRLPRPRPRPMPGPRP	-0.0941
RRIRARPPRLPRPRPRPMPHPRP	0.145
RRIRARPPRLPRPRPRPMPLPRP	-0.0326
RRIRARPPRLPRPRPRPMRGPRP	1.56
RRIRARPPRLPRPRPRPMRVPRP	0.789
RRIRARPPRLPRPRPRPMRWPRP	0.618
RRIRARPPRLPRPRPRPMTGPRP	0.0159
RRIRARPPRLPRPRPRPMTQPRP	0.249
RRIRARPPRLPRPRPRPMTWPRP	0.307

Sequence	shrunken log2 fold change
RRIRARPPRLPRPRPRPMVFPRP	0.508
RRIRARPPRLPRPRPRPMVQPRP	-0.081
RRIRARPPRLPRPRPRPMWFPRP	0.0716
RRIRARPPRLPRPRPRPMYHPRP	-0.215
RRIRARPPRLPRPRPRPMYSPRP	-0.08
RRIRARPPRLPRPRPRPNCGPRP	0.281
RRIRARPPRLPRPRPRPNDEPRP	0.361
RRIRARPPRLPRPRPRPNDSPRP	-0.225
RRIRARPPRLPRPRPRPNDWPRP	0.466
RRIRARPPRLPRPRPRPNDYPRP	-0.471
RRIRARPPRLPRPRPRPNECPRP	-0.409
RRIRARPPRLPRPRPRPNEKPRP	-0.0878
RRIRARPPRLPRPRPRPNESPRP	0.102
RRIRARPPRLPRPRPRPNFTPRP	0.134
RRIRARPPRLPRPRPRPNISPRP	0.0983
RRIRARPPRLPRPRPRPNITPRP	-0.0796
RRIRARPPRLPRPRPRPNMIPRP	-0.194
RRIRARPPRLPRPRPRPNNQPRP	-0.309
RRIRARPPRLPRPRPRPNPDPRP	0.571
RRIRARPPRLPRPRPRPNPMPRP	0.287
RRIRARPPRLPRPRPRPNPPPRP	0.458
RRIRARPPRLPRPRPRPNPYPRP	-0.115
RRIRARPPRLPRPRPRPNSDPRP	0.0804
RRIRARPPRLPRPRPRPNSSPRP	0.184
RRIRARPPRLPRPRPRPNTCPRP	0.136

Sequence	shrunken log2 fold change
RRIRARPPRLPRPRPRPNTYPRP	-0.627
RRIRARPPRLPRPRPRPNVFPRP	0.258
RRIRARPPRLPRPRPRPNVQPRP	0.109
RRIRARPPRLPRPRPRPNYGPRP	-0.24
RRIRARPPRLPRPRPRPPANPRP	3.4
RRIRARPPRLPRPRPRPPDKPRP	0.572
RRIRARPPRLPRPRPRPPDQPRP	1.16
RRIRARPPRLPRPRPRPPEEPRP	1.73
RRIRARPPRLPRPRPRPPEMPRP	0.515
RRIRARPPRLPRPRPRPPERPRP	0.703
RRIRARPPRLPRPRPRPPFEPRP	0.504
RRIRARPPRLPRPRPRPPGRPRP	0.742
RRIRARPPRLPRPRPRPPHAPRP	0.964
RRIRARPPRLPRPRPRPPHKPRP	0.996
RRIRARPPRLPRPRPRPPIEPRP	0.188
RRIRARPPRLPRPRPRPPIIPRP	-0.308
RRIRARPPRLPRPRPRPPIVPRP	-0.0791
RRIRARPPRLPRPRPRPPKHPRP	0.472
RRIRARPPRLPRPRPRPPLRPRP	1.63
RRIRARPPRLPRPRPRPPMDPRP	0.515
RRIRARPPRLPRPRPRPPMPPRP	0.405
RRIRARPPRLPRPRPRPPMVPRP	0.0322
RRIRARPPRLPRPRPRPPQPPRP	1.03
RRIRARPPRLPRPRPRPPSSPRP	0.342
RRIRARPPRLPRPRPRPPSYPRP	0.0336

Sequence	shrunken log2 fold change
RRIRARPPRLPRPRPRPPTFPRP	0.158
RRIRARPPRLPRPRPRPPWHPRP	0.342
RRIRARPPRLPRPRPRPPWLPRP	0.495
RRIRARPPRLPRPRPRPPWPPRP	0.738
RRIRARPPRLPRPRPRPPYQPRP	0.171
RRIRARPPRLPRPRPRPQAGPRP	0.195
RRIRARPPRLPRPRPRPQAKPRP	0.0548
RRIRARPPRLPRPRPRPQCWPRP	0.173
RRIRARPPRLPRPRPRPQDGPRP	0.214
RRIRARPPRLPRPRPRPQFSPRP	0.0761
RRIRARPPRLPRPRPRPQFWPRP	0.148
RRIRARPPRLPRPRPRPQGAPRP	0.191
RRIRARPPRLPRPRPRPQGSPRP	0.4
RRIRARPPRLPRPRPRPQHEPRP	0.0966
RRIRARPPRLPRPRPRPQHHPRP	-0.298
RRIRARPPRLPRPRPRPQHSPRP	0.283
RRIRARPPRLPRPRPRPQKQPRP	-0.00111
RRIRARPPRLPRPRPRPQLHPRP	0.054
RRIRARPPRLPRPRPRPQLMPRP	0.125
RRIRARPPRLPRPRPRPQNNPRP	-0.29
RRIRARPPRLPRPRPRPQPLPRP	0.209
RRIRARPPRLPRPRPRPQQIPRP	0.218
RRIRARPPRLPRPRPRPQQNPRP	0.166
RRIRARPPRLPRPRPRPQQRPRP	0.199
RRIRARPPRLPRPRPRPQWMPRP	0.0371
